{
  "source": "patent KR20220013297A",
  "about": "(dated 2022)",
  "key": {"[1]": {"biological_target": "T1, SARS-CoV-2 바이러스 표면 단백질 (RBD), WT (SARS-CoV-2, UniProt P0DTC2 319-541)", "assay": "BLI (Octet), Full IgG on RBD WT"}, "[2]": {"biological_target": "T1, SARS-CoV-2 바이러스 표면 단백질 (RBD), WT", "assay": "BLI (Octet), Full IgG culture supernatant on SARS-CoV-2 RBD"}},
  "data": [
    {"binder": "No. 32 항체 (Full IgG) (antibody, V domains shown) VH: EVQLVQSGGGLIQPGGSLRLSCAASEFIVSSNYMTWVRQAPGKGLEWVSIIYPGGSTYYADSVKGRFTISRDNSKNTLYLRMNSLRAEDTAVYYCARDLPLTGTTLDYWGQGTLVTVSS VL: not shown", "values": [
      {"measurement": "Kd", "setting": "[1]", "result": 0.305, "unit": "nM"},
      {"measurement": "koff", "setting": "[1]", "result": 0.000193, "unit": "s⁻¹"},
      {"measurement": "kon", "setting": "[1]", "result": 633000, "unit": "M⁻¹ s⁻¹"},
      {"measurement": "Kd", "setting": "[2]", "result": 0.147, "unit": "nM"}
    ]}
  ]
}
